In the NTF2 design screens of Basanta et al. (2020) one finds protease stability score data, which are given here for 47 sequences.

A short description of the data set: protease stability score; higher = more stable; yeast display proteolysis, trypsin and chymotrypsin.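 Note: relative to predicted unfolded state with 0 unfolded-like and 1 meaning tenfold more protease.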
Sequence “DEEKEEIELAIRLTEKMLKTGDEELWRENADPNARFVTENHDDHGREVIVKWVHEMRRKFKNMRLEIEDVRTFNGRLEIHLRLNVNGRDLKINIIVEKVNGRWFLREIEIQ” had a protease stability score of 1.74.

As for “DEEKEEIRQFEETFVEAMKTGDEDVIRHLLDPHVRVDINGQTFHGREIVIEMVSRFPNVQVHIDDLDVQGNWAHSDVQLHQGDKYIRLHIDVTKIDGKWRITFLKFK”, the protease stability score worked out at 1.45.

Regarding “DEEKEELEKATEEWVHFMRTGDEDSLIKNLDPNVKNIFNGKEEIGREDLSHFIKHMGAKVVRIEDIKTQGDKVIIDTRIEVGDKHFEVTLYFEKINGRWFLHSVEIR”, the protease stability score was found to be 0.512.

As for “DEEKEETEKLAKDILHNIHTGNEEEFLKLADPNTRIVQGDFRTHGRESMHFWMREVRKLFKNVRIHWRLKDVRSFEGHAITHIEVEVSFDGRTDLIRMEIHVIVVNGKIEELIINTR”, the protease stability score stood at 0.695.

As to “DEEKEEWEELFKEFEHSIHTGDFRVLAKQMDPHVRIIYGEKRVHGREDAHKLMRDTLEKLGVDHMHVEDNHLQGDFIHLQIRRHVNGRTMTVHFLIWKYNGRWYMHSIKIE”, the protease stability score stood at 1.43.

Sequence “DEEKEEYNRKAKEFWQRWLTGDEKRLRELADPNVRLDIDGVELVGREEFVHAVHEFLRHIRFKDMKVHRTDNIDGKNESDFEVTGDVNGQDMKSRTHVLILLVNGKIKEVEHRWK” gave a protease stability score of 0.222.

The sequence “DEEKEEYRRAIEDWIKFFITGDFDLLKTLADPNARSEIGNYEFHGMEHISRRIVDIIERFKNMRYSVHSIDFQGDYVILHSYIIYGDKHLHLIVITYKFNGRWRFHSVRVE” came in with a protease stability score of 1.26.

The sequence “DEEKEFAEEMTRIWIEFWKTGDEDDLSHMLDPNVRLIIIIGDKHIHMHGRERAIKEIRRLLHEWRIDDEHNEHIRYFNGKVDVRSRIHVTINGREHDHELVVRIFVVDGRVKSVSIEYR” showed a protease stability score of 2.52.

“DEEKEFAEIYLRRLEELYNTGDEEIEHDLLDPHVRINIGNKHIHGREQYIEHWRKLLIILGIERFTIHVRIKDVRIQGEFAHLDGRLELRVGDKRRTLDVELIILKVNGRWVNKHIHFL”: the protease stability score was 0.888.

The sequence “DEEKEHAHRFYEEWVKAWRTGDFKHMLDLIDPNTKIVINGQEYHGMEMWSHIVEHLERLHGYRINHERIHHIRNIDGKVDSDVHVRGRYNGRDIDSRMHIHLDVVDGRIKSLEFRSK” yielded a protease stability score of 1.55.

“DEEKEHAKEMLELHLRLWLTGNEDKLHRLADPHVRMTIDGKEFIGREEMIKAIREHLKRLGVDHVRIHWTRLHVVDGQIDLHTHIRLHVDGRTIEIESEIISVVFNGVMKSIEWKFK” displayed a protease stability score of 1.38.

Consider “DEEKEIHEELVRIWNHAVNTGNEELMERLMDPNVRLLYNGVDLIGMEHAREFNKRFDHLKIRRNEIKSFRVQGNKIDSDTHVDVELNINGKTLRVQQDQHWVVLKVDGRWYIHKIEIL”, for which the protease stability score was determined as 0.799.

Consider “DEEKEISELLFRLIFHMLETGDEELSRRLLDPNTRTIWNGRHLHGREASELMRRILHHFVKGATTEIKDLKVQGDWMHFHVTIHIGDKRIRTEIIVHTIDGRIDSMEFRVT”, for which the protease stability score was 1.39.

“DEEKEISKKATEILISILRTGDEDVMREYLDPHVRIDFNGKQLHGMDYLWRLLKHMRLRSLDVHSFHFVDGVIEVDSRSDGEVNGQRTDYHFHFIIEKVNGKWWLHKVKFE” returned a protease stability score of 1.64.

Regarding “DEEKEIVENTTRLYWHLMETGNFDRWMKEADPNTRQDVDGKELHGMELVAHRIRELLEKFKGVRFHVEDIKIINGRSHMDIRIIIGDKHIEAHLILLVVDGRLKHVSLIIR”, the protease stability score worked out at 1.99.

Turning to “DEEKEKAKEFLHEWFRSLETGDEDLLTKLLDPNARMDINGQRFVGRHDIQRFISELREKIPNMQIDFHDQEMTDVNGVVQVDMRVDIHYGDKSSHHRLHVYVLKINGRWINKHIHVRTK”, the protease stability score was 1.16.

Consider “DEEKELADYISHLLVENLKTGDWHSLRRLIDPNARLEYGDKEHHGWKEIYESKRHLDEELGVKHVNINIHRINYQGEKVEIDGEVRIHFNGRTENRKVNIELRIFNGRIKEVIVDIR”, for which the protease stability score was 1.17.

Turning to “DEEKELNENLAKIILHMFHTGDEKRWSKMADPHMRANINGVTIHGRELVIKEFLHWRHRLGVKHEEIHHIDIQGDKVRTDSHVDIDGQRVNIILRVVVVNGRLHSEEVEIR”, the protease stability score was 0.787.

The sequence “DEEKELNRHLAELWLHWWFTGDEEVITEMADPEVRFEVDGRTFHGRETLSRMISEKKRDLGADHERLRDVKVIGDKVHIESVIHVNGRELEVHIIIVVYNGRLKELRVEVK” came in with a protease stability score of 1.04.

As for “DEEKELSKKLLEVFIKVMRTGDWRAFSERLDPHTRTDVNGVDIHGRENTLELLRRLEEEWGVSRVDVRIHDADHQGDYIKFDGIEIYNGVERRTRMVSEKFNGRWRNKIFILD”, the protease stability score was determined as 0.238.

With “DEEKEMNRHFLEHLKTAYETGDEDSIIKNIDPHYRIIVGDKDLIGMEHVKKWLHHARIHEIHPRRLEVQGNKITNDIHVVGEVNGVLRSTDQIWYLLKVDGRWLIESIEIK”, the protease stability score was found to be 1.11.

Take “DEEKERMEELLRLWVEAVRTGDEETLHKLMDPDVRIEYGDKDHHGREEMHRMMREWYERVDVINTYHVRRIKIVDGKARVDAELDGTIDGKRVIFREILISSKYNGQWTVTSISIK”: the protease stability score stood at 1.43.

Sequence “DEEKERMFEHWEDVLRDWYTGNEDNLRHLFDPHARTDVNGVELHGMDLISEVLRRHLEEIRIKSMHLRELRSVDGRIHEHGELRGRVNGVDVRREVRVHLTVVNGRMKEMRFENI” had a protease stability score of 0.394.

For “DEEKERSDRLYERFFTAIFTGDEDLIRKLLDPDTRYQIGDKSSHGRDDIYDRIREMRNKVPNLRWDIRHVRIQGEKVHLDVEFNVNGKRDEFHIELDIVNGRLRHIRIEPV”, the protease stability score amounted to 1.24.

“DEEKESAERWLHIFLHSMDTGDEDKIRKLLDPNVLNDVGDKVLIGRELAFKWFHHLRFRKVHLRDFRIINGRIEVDIDVRGEINGKEDHFRLEVDLRKINGRWVLHEIRID”: the protease stability score worked out at 2.81.

As to “DEEKETAHEIHRILIKAWITGDEDTLNELLDPNVRIDINGVDTHGMEELKRVFEEHKKEIRWKDVRPRHIHVINGQIHSDTDHNGVVNGVTRTRKAHWIIVVIDGKVHSIKFIIH”, the protease stability score was found to be 1.29.

The sequence “DEEKEVMKELYEMLIHDLLTGNEESLHKLLDPHVKVDIDGKILHGMEATVKWWKEAGADHTDIHSVERQGEKIIINMILRVGDKTLRLHVHIIVVNGRVESIRVELRHE” returned a protease stability score of 1.01.

Turning to “DEEKEYAIRILREFTKYWETGDFERMKELFDPNARLEIGDKRAVGRDKVLEVLLRELHELRFKHFELREEDVIGEKKHSELIVHMEIDGVWHRRNIRVEIVVIDGKIHRMRFEQH”, the protease stability score was 2.37.

On to “DEEKHEALRLTREFLKLFFTGDWEKLVRLIDPDAKVEIGNFESVGRENIAHLLHLLNEEWRINDMRIHSFTVVNGQVRMDTEINGIYGDKNYETRTEIESVVIDGRLKHFSIRER”, for which the protease stability score is 1.24.

“DEEKHEFELLLRLWLRTMETGDEQMSRRLVDPNVRIEIGDKDIHGREEMSRIVRHWRVHDYDIKDSTVQGDKAHLDGHIEGTIDGKTTRFHIHLNLEKINGRWLIKEVVVE” displayed a protease stability score of 2.19.

“DEEKHELEERVRLHIERWKTGDEDTLRHYADPDVRTHIDVGDKKFNYHGREEIVQAYKHLLDQLGVKHSEIDRSTAVNGVVHLHMTLRFDGVRMEWRIDIWIIDGRTKTIHIEIRHR”: the protease stability score is 0.942.

Regarding “DEEKHILDRYWEEWLHALITGDEERLMELIDPNAKHVFNGKELHGRESLTELLRRLGMEIKDIRDHDLKVIGDKLHIDTRIDGIINGRQTTIRMHIIATKIDGKWVHTKLEVR”, the protease stability score was found to be 1.23.

The sequence “DEEKHLALFLYRILVKWWLTGNEEDESHLADPHTRFEVNGVELIGRELSSHMIERELREIRVIIEIEEFRTVGDKVDIRLTLKYEYGDKEDSRESHLELIIIDGKTTHVEVRER” returned a protease stability score of 1.6.

In turn, “DEEKHSAEHFMRLWIESFETGDEESIKRLMDPHAKSDFNGVEMHGREYLEVIKREMRVKSSRLHVKHIDVIDGVVIIEGRMILDGEINGVRTRLESDVRFVVEKFDGRWILRSSSIK” came in with a protease stability score of 1.31.

As to “DEEKKAIRKVWELVIHSLVTGDEDSVEKLLDPHVRVHINGVHLHGMETFRHTFHEWRLEIKSVHIQDMDSINGVARLDISFVGRFKFDGRVEETIIDIHLVVNKINGRWVIEEQKFE”, the protease stability score was found to be 1.48.

“DEEKKANHFNKEFDRNVQRNNETELRKMVDPNARVNVGEQNYSGRNKMVKIITDWLRKYDKFTIDVRRIDVHGNRIFIDFEMVVVSNGQRRTTEIRVVVEEHNGRLHIRVWEIT” showed a protease stability score of 1.03.

“DEEKKDIKHWLEKWITDTRTGDEEEILKMLDPNVRTEQGEFELHGRDALKHYIDRFDHIHEVDLEVKHVTEQGDKLHIKGTLRMDGIVDGVRRTFYFRTILIVRKIDGRWAVSRVILL” displayed a protease stability score of 2.32.

Take “DEEKKDLDILIEILFEIIYTGNEEKFRELVDPNAKSRVGDKKTHGREDATKLLSKKWRHMRIRTMDVHDFRHYDGQIDVDSRLDGDINGVELLLEVRLILVKYDGRWLIKNIHIQ”: the protease stability score was 1.43.

For “DEEKKDLERLYELLLRSMFTGDWRALEELMDPNVLLQVNGKELHGWKLMVRVMREIRIEDHEVKHIELQGDKIHMDTRTHGEFDGRTDTTKTHVLAKKVDGQWRLKHYKID”, the protease stability score amounted to 0.932.

Turning to “DEEKKDVHKIWELFVEHYYTGDEEFLHRMADPNVRSDVNGKELHGRESLLSLMREWIDRADVIQHIDVEDRRIQGDKAYIRTRFVGLVNGKPVSTDVTIILSKVNGQWFMHRIVIK”, the protease stability score was determined as 1.61.

In the case of “DEEKKEILEIARRVIESLLTGDWEEDHELADPNVLYIQGDKEVHGMETTWRIIFELRHQIKGMTEHIHIRRVEIVNGVAHLDTELRLNVNGREVTHETHVHIFLYNGRVKRIEVRIK”, the protease stability score stood at 1.48.

In turn, “DEEKKEIQKAVDLMRHLLVTGDENTLHHLLDPNVRLIVGDKFFHGREELIRVWSEEIESMGFDHVEMHVRHVRVIGDKADVQMEIRFDVNGREHSREFRVRLRKIDGQWVIKSIEIR” registered a protease stability score of 2.15.

In the case of “DEEKKEQRHFLKKLADSIATGDEESLEKMVDPNAKSVVNGVEQHGMELMVENLREWLERLGVTKISFHEKRFRLIGNKLEVDGTIEVNGKKFESHFIVEKVDGQWRIREIRLH”, the protease stability score was determined as 0.931.

For “DEEKKEVNRIFELWARLFETGDEDSIHRLLDPNARLEVNGQEIHGRHNISRTFLEFKERFKGIKIELILREVRVIGDKVHIHSELRVNINGREESFETDIDLVVIDGKLHSFRFHVH”, the protease stability score is 2.48.

For the sequence “DEEKKFIHYLAHLLIELILTGDEDTFEKLADPDVRLSIFAENHELHWHGREEVLRELIHWTRRVDHIHMKLDHSRIINGKSHMDGNLVDIQGDKKIEKKVTVILVVVNGKVKRIEIWIG”, the protease stability score is 1.47.

For the sequence “DEEKKFYIKLFELFWRAWLTGNEQFLLEMADPNVKVEYTYNGRDVRTHGRETMYTFLHEILRYLGVKHSRLRRDEFQGDKVHLDVEEHFNGRTVKTLIIIDVVDGRLEIDKFHTT”, the protease stability score amounted to 0.705.

The sequence “DEEKKKFEHWVKLVIHALLTGDEKHLNDMADPNVKVRSVFNGRHVELHGRENEHRWLEKLRKRLGVDHIEITDSVIQGDKVEIDSRYIQGDKEFKSSIHIVVVNGRTHENEFIFH” showed a protease stability score of 1.1.
